Source: patent US20230051715A1 (MABWELL THERAPEUTICS, published 2023)
Changes are numbered by the printed parent chain. Names and notes keep the numbering of the source. Blank lines part the entries; values can stand above or below the binder they belong to.

What was measured:
[1] = biological target: T1, human C1s mutant M20 (A320S) (human, UniProt P09871 16-688); assay: ELISA, plate coated with human C1s mutant M20: A320S, OD450nm
T1 construct: The entry is the mutant itself
T1 sequence: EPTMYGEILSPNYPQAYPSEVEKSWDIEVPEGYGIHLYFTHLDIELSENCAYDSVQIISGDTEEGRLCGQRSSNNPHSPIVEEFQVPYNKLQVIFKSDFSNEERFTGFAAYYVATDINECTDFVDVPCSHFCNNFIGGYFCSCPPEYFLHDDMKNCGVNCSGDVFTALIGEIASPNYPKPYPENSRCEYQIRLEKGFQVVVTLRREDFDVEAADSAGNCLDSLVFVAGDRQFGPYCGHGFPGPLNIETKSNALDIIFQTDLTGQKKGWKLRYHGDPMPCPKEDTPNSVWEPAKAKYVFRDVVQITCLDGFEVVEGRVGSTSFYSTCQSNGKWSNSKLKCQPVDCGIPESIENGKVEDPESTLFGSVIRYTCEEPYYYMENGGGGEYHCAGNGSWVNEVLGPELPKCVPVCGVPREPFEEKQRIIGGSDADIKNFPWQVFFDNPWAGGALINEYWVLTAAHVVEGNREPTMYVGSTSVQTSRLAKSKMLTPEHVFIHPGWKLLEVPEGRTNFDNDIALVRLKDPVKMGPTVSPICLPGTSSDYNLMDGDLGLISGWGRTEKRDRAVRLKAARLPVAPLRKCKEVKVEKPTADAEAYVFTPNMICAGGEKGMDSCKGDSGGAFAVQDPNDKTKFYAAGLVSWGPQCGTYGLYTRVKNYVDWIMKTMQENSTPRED
Experimental: (§1) ELISA was carried out by first coating 96-well plates with 200 ng/well of full-length or truncated C1s proteins overnight. The next morning, plates were blocked with SuperBlock T20 blocking buffer (Thermo Scientific 37536) for 1 h with gentle shaking. Then, various concentrations of anti-C1s antibodies diluted in SuperBlock T20 blocking buffer were added to the plates and incubated for 1 h with gentle shaking. Mouse IgG (Sigma-Aldrich 15381) and human IgG1 (BioXCell BP0297) were used as negative controls. The plates were washed before incubating with HRP conjugated secondary antibodies diluted in SuperBlock T20 blocking buffer (goat anti-mouse IgG (H+L) cross-adsorbed secondary antibody HRP (Invitrogen G-21040) or goat anti-human IgG antibody, HRP conjugate (Millipore AP309P)) for 1 h with gentle shaking. At last, the plates were washed and color developed with ELISA liquid HRP substrate (Sigma-Aldrich), followed by stopping the reaction with addition of 1M H₂SO₄ in the same volume as the ELISA liquid substrate. Bound antibody was measured by absorbance at OD₄₅₀ₙₘ.
(§2) Binding of anti-C1s antibodies to mutants M1-M20 of human C1s was measured by ELISA as described in Example 4, and results are shown in FIGS. 6B-6U. All anti-C1s humanized variants including hz2-7(H1L2), hz2-8(H1L2 G80A) and hz2-8(H1L2 G80A/T82A) maintained strong binding properties to the majority (16 out of 20) of C1s mutants including M1 (FIG. 6B), M2 (FIG. 6C), M3 (FIG. 6D). M4 (FIG. 6E), M7 (FIG. 6H), M8 (FIG. 6I), M10 (FIG. 6K), M11 (FIG. 6L), M12 (FIG. 6M), M13 (FIG. 6N), M15 (FIG. 6P), M16 (FIG. 6Q), M17 (FIG. 6R), M18 (FIG. 6S), M19 (FIG. 6T) and M20 (FIG. 6U).

[2] = biological target: T2, human C1s mutant M6 (P280A, E282K & K336G) (human, UniProt P09871 16-688); assay: ELISA, plate coated with human C1s mutant M6: P280A, E282K, K336G, OD450nm
T2 construct: The entry is the mutant itself
T2 sequence: T1 sequence with P280A, E282K, S319A, K336G
Experimental: as §1
Binding of anti-C1s antibodies to mutants M1-M20 of human C1s was measured by ELISA as described in Example 4, and results are shown in FIGS. 6B-6U. […]

[3] = biological target: T3, human C1s mutant M3 (M277I, P278S & N329D) (human, UniProt P09871 16-688); assay: ELISA, plate coated with human C1s mutant M3: M277I, P278S, N329D, OD450nm
T3 construct: The entry is the mutant itself
T3 sequence: T1 sequence with M277I, P278S, S319A, N329D
Experimental: as §1, §2

EC50 [1]: 4 ng/mL
EC50 [2]: 13 ng/mL
EC50 [3]: 8 ng/mL
B1: Anti-C1s antibody hz2-7(H1L2) (antibody, V domains shown)
VH: EVQLLESGGGLVQPGGSLRLSCAASGFTFSNYFMNWVRQAPGKGLEWVSEIRLKFTNYATHYADSVKGRFTISRDDSKSTLYLQMNSLRAEDTAVYYCTRDYGSRNGYFDYWGQGTLVTVSS
VL: DIVMTQTPLSLPVTPGEPASISCRSSKSLLHSNGNTFLYWFLQKPGQSPQLLIYRMSNLASGVPDRFSGSGSGTDFTLKISRVEAEDVGVYYCMQHLEYPYTFGGGTKLEIKR
notes: Humanized, human IgG1 / kappa; also called hz2-7(1L2)

EC50 [1]: 3 ng/mL
EC50 [3]: 6 ng/mL
B2: Anti-C1s antibody hz2-8 (H1L2 G80A) (antibody, V domains shown)
VH: QVQLVQSGAEVKKPGASVKVSCKASGFNIKEYYMHWVRQAPEQGLEWMGWIDPENADTIYAQKFQGRVTITADTSTNTAYMELSSLRSEDTAVYYCARSRLFFAYWGQGTLVTVSS
VL: DIQMTQSPKSLSASVGDRVTITCRASQDVRTALDWYQQKPGQSPKLLIYSASYRYSGVPSRFSGSGSGTDFTLTISSLQPEDFATYYCQQQYTTPYTFGQGTKLEIKR
notes: Humanized variant with G80A in HC CDR2 (already in the entry), human IgG1 / kappa

EC50 [1]: 5 ng/mL
EC50 [2]: 60 ng/mL
EC50 [3]: 4 ng/mL
B3: Anti-C1s antibody hz2-8 (H1L2 G80A/T82A) (antibody, V domains shown)
VH: B2 VH with T58A
VL: B2 VL
notes: Humanized variant with G80A and T82A in HC CDR2 (already in the entry), human IgG1 / kappa
